Paper doi:10.1101/647354 (bioRxiv, 2019)

Target: T1, complement C5 (human, UniProt P01031 19-673; P01031 678-1676)
T1 construct: also called human C5; source: endogenous, human serum
Test: cryo-EM structure
Details: both partners purified

T1 sequence (P01031 19-673, chain 1 of 2): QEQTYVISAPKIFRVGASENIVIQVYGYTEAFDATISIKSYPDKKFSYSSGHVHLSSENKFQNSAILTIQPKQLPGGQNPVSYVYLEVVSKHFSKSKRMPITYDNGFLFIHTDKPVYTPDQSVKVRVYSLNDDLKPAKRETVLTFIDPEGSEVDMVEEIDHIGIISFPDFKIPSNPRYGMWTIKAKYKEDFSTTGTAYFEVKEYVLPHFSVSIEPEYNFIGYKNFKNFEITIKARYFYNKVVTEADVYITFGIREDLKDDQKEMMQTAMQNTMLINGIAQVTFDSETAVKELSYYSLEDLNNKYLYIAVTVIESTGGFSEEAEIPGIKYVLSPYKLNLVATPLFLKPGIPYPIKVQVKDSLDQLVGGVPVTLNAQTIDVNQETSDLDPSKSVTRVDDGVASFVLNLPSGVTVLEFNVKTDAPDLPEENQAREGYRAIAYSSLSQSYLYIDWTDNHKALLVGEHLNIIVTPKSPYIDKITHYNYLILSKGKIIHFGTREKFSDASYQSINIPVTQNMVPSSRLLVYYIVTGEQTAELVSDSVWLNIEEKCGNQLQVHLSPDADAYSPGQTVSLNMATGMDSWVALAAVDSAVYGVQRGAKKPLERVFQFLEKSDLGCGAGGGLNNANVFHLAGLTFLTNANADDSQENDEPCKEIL
T1 sequence (P01031 678-1676, chain 2 of 2): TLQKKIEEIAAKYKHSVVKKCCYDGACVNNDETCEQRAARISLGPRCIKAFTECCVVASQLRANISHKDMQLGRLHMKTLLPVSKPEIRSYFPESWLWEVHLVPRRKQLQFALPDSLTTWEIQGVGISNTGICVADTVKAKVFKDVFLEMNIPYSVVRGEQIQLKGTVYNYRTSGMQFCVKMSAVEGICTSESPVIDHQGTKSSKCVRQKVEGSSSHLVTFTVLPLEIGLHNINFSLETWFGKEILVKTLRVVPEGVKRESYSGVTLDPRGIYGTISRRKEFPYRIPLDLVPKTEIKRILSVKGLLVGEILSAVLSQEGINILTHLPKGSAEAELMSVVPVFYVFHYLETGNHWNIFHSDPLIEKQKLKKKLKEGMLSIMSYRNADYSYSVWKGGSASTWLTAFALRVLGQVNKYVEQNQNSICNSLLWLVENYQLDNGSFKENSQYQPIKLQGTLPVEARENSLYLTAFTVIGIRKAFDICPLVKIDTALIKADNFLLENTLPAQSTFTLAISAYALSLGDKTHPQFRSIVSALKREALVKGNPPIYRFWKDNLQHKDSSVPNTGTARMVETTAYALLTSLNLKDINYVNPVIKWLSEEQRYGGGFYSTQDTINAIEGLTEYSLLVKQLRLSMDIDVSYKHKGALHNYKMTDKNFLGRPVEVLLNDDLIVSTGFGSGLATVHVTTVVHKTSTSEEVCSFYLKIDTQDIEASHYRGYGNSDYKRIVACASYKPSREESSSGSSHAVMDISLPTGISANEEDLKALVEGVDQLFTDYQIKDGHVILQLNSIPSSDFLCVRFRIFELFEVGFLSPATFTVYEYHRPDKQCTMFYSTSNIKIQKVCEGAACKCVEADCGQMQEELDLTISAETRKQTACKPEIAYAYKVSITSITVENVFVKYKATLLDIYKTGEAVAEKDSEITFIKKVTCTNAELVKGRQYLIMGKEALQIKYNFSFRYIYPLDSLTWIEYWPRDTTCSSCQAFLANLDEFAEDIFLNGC

B1: OmCI (natural protein)
chain: DSESDCTGSEPVDAFQAFSEGKEAYVLVRSTDPKARDCLKGEPAGEKQDNTLPVMMTFKNGTDWASTDWTFTLDGAKVTATLGNLTQNREVVYDSQSHHCHVDKVEKEVPDYEMWMLDAGGLEVEVECCRQKLEELASGRNQMYPHLKDC
notes: also called Coversin; His-tagged OmCI
B1: binds.
